Assay results: paper PMC8716136

Target: CaMKIIδC-GFP T287A (phosphoresistant) (R. norvegicus)
Assay: FRET or BRET

donor fluorescence (FDD) after 5 uM unlabeled CaM, % of initial intensity: 80%
Substance: unlabeled CaM (calmodulin) (from UniProt P0DP23 1-149) (natural protein)
